{"source": "patent US20130231286A1", "about": "“Use of Prolactin Receptor Antagonist and Chemotherapeutic Drug for Treating Ovarian Cancer” (ONCOLIX, INC., priority 2010, published 2013)", "key": {"[1]": {"tested_on": "human ovarian cancer cells SKOV3", "experiment": "Human ovarian cancer cells SKOV3 injected intraperitoneally in SCID mice: tumors and secondary nodules", "assay_type": "in vivo, mouse", "settings": "38 days, G129R 100 ug daily, DCT 25 ug weekly", "description": "SCID mice (laboratory experimental animals that lack both T and B lymphocytes) were injected with one million human ovarian cancer cells SKOV3 intraperitoneally on day 1.\nAll mice were treated for 38 days and then sacrificed, and tumors from every experimental group were weighted.\nThe effect of G129R and the G129R+DCT combination on the ability of human ovarian cancer cells to metastasize was also studied."}, "[2]": {"tested_on": "mouse ovarian cancer cells ID8", "experiment": "Mouse ovarian cancer cells ID8 injected intraperitoneally in SCID mice: tumors and secondary nodules", "assay_type": "in vivo", "settings": "52 days, G129R 100 ug daily, DCT 25 ug weekly", "description": "SCID mice were injected with one million mouse ovarian cancer cells ID8 intraperitoneally on day 1.\nAll mice were treated for 52 days and then sacrificed, and tumors from every experimental group were weighted.\nThe effect of G129R and the G129R+DCT combination on the ability of mouse ovarian cancer cells to metastasize was also studied."}, "[3]": {"tested_on": "mammary HER2+ adenocarcinomas of MMTV/neu transgenic mice", "experiment": "ALDH1 activity in tumor cells isolated from treated MMTV/neu transgenic mice", "assay_type": "in vivo, mouse", "description": "MMTV/neu transgenic mice carry an activated c-neu oncogene driven by a mouse mammary tumor virus (MMTV) promoter and develop mammary HER2^+ adenocarcinomas (Muller et al. 1988. Cell. 54(1):105-15). MMTV/neu transgenic mice bearing mammary tumors were treated with PBS (n=4) or G129R for 5 (n=2) or 10 (n=3) days (10 mg/kg, i.p.). The tumors were isolated at the end of treatment, digested to a single cell suspension, and ALDH1 activity levels were compared."}, "[4]": {"tested_on": "Human triple-negative breast cancer cells MDA-MB-231", "experiment": "ALDH1 activity (ALDEFLUOR fluorescent assay) in triple-negative breast cancer cells", "assay_type": "cell-based", "settings": "MDA-MB-231, G129R 10 ug/ml, three days, vs control", "description": "Human triple-negative breast cancer cells MDA-MB-231 and control breast cancer cells T-47D were plated in 6 well plates at 1×10^5 cells/ml, and allowed to adhere for 24 hours in growth media followed by 2 hours of serum free media depletion. The cells were then cultured either without (control) or with prolactin (100 ng/ml) or G129R (10 ug/ml) for three days. The cells were then collected and the ALDH-1 activity (this enzyme is a marker for cancer stem cells. See Ginestier et al., Cell Stem Cell 2007 1(5): 555-567) was measured by ALDEFLUOR^R fluorescent assay (StemCell Technologies)."}, "[5]": {"tested_on": "HER2+/neu tumors implanted into female transgenic mice", "experiment": "Growth of implanted tumors in transgenic mice", "assay_type": "in vivo, mouse", "settings": "10 mg/kg i.p. daily, 50 days; ±SEM", "description": "In two separate experiments, tumors were isolated from female transgenic mice, sectioned into equivalent sized pieces and implanted into age-matched recipient female transgenic mice. Ten days after implantation, mice were randomized into either control (n=3-4) or G129R treated groups (n=4, 10 mg/kg, i.p. daily). The mice were then treated on a daily basis for 50 days and tumor volumes for the control and treated groups were monitored."}, "[6]": {"tested_on": "Primary mammary tumor cells isolated from MMTV/neu transgenic mouse", "experiment": "ALDH1 activity in cultured primary MMTV/neu mammary tumor cells, time course", "assay_type": "cell-based", "settings": "G129R 10 ug/ml", "description": "Primary mammary tumor cells were isolated from MMTV/neu transgenic mouse and cultured in the presence of G129R (10 ug/ml) or PRL (100 ng/ml) for 24, 48, 72, or 96 hrs. Specifically, tumor removed from an MMTV-neu mouse was digested to a single cell suspension and plated in 12-well plates at 1×10^5 cells/ml. Cells were allowed to adhere for 24 hours in growth media followed by 2 hours of serum-free media depletion. The cells were then either treated without (control) or with prolactin (100 ng/ml) or G129R (10 ug/ml). Cells were collected following 24, 48, 72, or 96 hours of treatment and the ALDH-1 activity was measured."}, "[7]": {"tested_on": "phosphorylated HER2/neu protein", "experiment": "Time-dependent response of phosphorylated HER2/neu in tumors in vivo (western blot)", "design": "species or system mouse", "settings": "10 mg/kg/day i.p.", "description": "To determine an optimal length of treatment with G129R, MMTV tumor-bearing mice were treated with 200 ug G129R for either five or ten days. Tumors were removed 24 hours after the last treatment and processed for western blot analysis. […] As also can be seen in FIG. 8, of 10 mice receiving a 10 day treatment of G129R (10 mg/kg/day, i.p.), tumors from 3 mice were highly responsive and virtually no phosphorylated HER2/neu was detected in these tumors, 5 mice were moderately responsive and 2 mice were nonresponsive."}, "[8]": {"tested_on": "lung metastases of HER2+/neu breast tumors", "experiment": "Lung metastases after removal of primary breast tumors in MMTV/neu mice", "assay_type": "in vivo, mouse", "settings": "200 ug/day i.p. for more than 40 days, vs untreated control, P<0.05", "description": "Primary breast tumors were removed from MMTV/neu transgenic mice. The mice were then treated either with PBS or G129R (200 ug/day, i.p.) for more than 40 days. When the secondary tumors (recurrence) grew to a certain size, the mice were sacrificed and the lungs were excised and fixed in Bouin's fixative to observe metastasis."}, "[9]": {"tested_on": "phosphorylated HER2/neu protein", "experiment": "Dose-dependent response of phosphorylated HER2/neu in tumors in vivo (western blotting)", "design": "species or system mouse", "settings": "i.p. for ten days; 2.5, 5, 10, 20 mg/kg/day tested", "description": "To determine a minimal dosage of G129R required for decreasing phosphorylation of HER^+/neu in vivo, a biopsy was removed from tumors of MMTV/neu transgenic mice and was used as a self-control baseline. The mice were then treated i.p. for ten days with either PBS or G129R at the following concentrations: 50, 100, 200 or 400 ug daily (2.5 mg/kg/day, 5 mg/kg/day; 10 mg/kg/day; or 20 mg/kg/day of G129R). The tumors were then harvested and processed for western blotting. The western blots were then probed with an antibody that detects phosphorylated HER2/neu protein and an antibody against beta-tubulin as a control for gel loading and western blotting transfer."}, "[10]": {"tested_on": "phosphorylated Neu protein", "experiment": "Phosphorylation of Neu protein in primary and secondary tumors (western blotting)", "assay_type": "in vivo, mouse", "settings": "200 ug per day for 5 days, vs PBS", "description": "MMTV/neu mice (bearing primary and secondary tumors) were treated either with PBS (control) or with 200 ug of G129R per day for 5 days. Primary and secondary tumors were removed 24 hours following the 5th treatment and processed for western blotting."}}}
{"molecule": "CC(=O)O[C@@]12CO[C@@H]1C[C@H](O)[C@@]1(C)C(=O)[C@H](O)C3=C(C)[C@@H](OC(=O)[C@H](O)[C@@H](NC(=O)OC(C)(C)C)c4ccccc4)C[C@@](O)([C@@H](OC(=O)c4ccccc4)[C@H]21)C3(C)C", "note": "[docetaxel, reference compound]", "values": [{"measurement": "number of secondary nodules (metastases) versus control", "setting": "[1]", "result": "suppressed the number of secondary nodules"}, {"measurement": "size (weight) of tumors versus control", "setting": "[1]", "result": "suppressed the growth of tumors"}, {"measurement": "number of secondary nodules (metastases) versus control", "setting": "[2]", "result": "suppressed the number of secondary nodules"}, {"measurement": "size (weight) of tumors versus control", "setting": "[2]", "result": "suppressed the tumor growth"}]}
{"molecule": "G129R: prolactin receptor antagonist: human prolactin in which glycine at position 129 is substituted with arginine (protein) LPICPGGAARCQVTLRDLFDRAVVLSHYIHNLSSEMFSEFDKRYTHGRGFITKAINSCHTSSLATPEDKEQAQQMNQKDFLSLIVSILRSWNEPLYHLVTEVRGMQEAPEAILSKAVEIEEQTKRLLERMELIVSQVHPETKENEIYPVWSGLPSLQMADEESRLSAYYNLLHCLRRDSHKIDNYLKLLKCRIIHNNNC", "values": [{"measurement": "ALDH1 activity in cancer cells isolated from treated animals", "setting": "[3]; 10 mg/kg i.p. for 5 or 10 days, vs PBS", "result": "significantly reduced"}, {"measurement": "ALDH1 activity in cancer cells after ten days of treatment", "setting": "[3]; 10 mg/kg i.p., ten days", "result": "Practically no ALDH1 activity was detected"}, {"measurement": "ALDH1 activity in triple-negative breast cancer cells", "setting": "[4]", "result": "significantly reduced"}, {"measurement": "final tumor volume smaller than control (first value of two experiments)", "setting": "[5]", "result": 67.1, "unit": "%"}, {"measurement": "final tumor volume smaller than control (second value of two experiments)", "setting": "[5]", "result": 71.5, "unit": "%"}, {"measurement": "final tumor weight reduced versus control (first value of two experiments)", "setting": "[5]", "result": 61.3, "unit": "%"}, {"measurement": "final tumor weight reduced versus control (second value of two experiments)", "setting": "[5]", "result": 62.5, "unit": "%"}, {"measurement": "reduction of ALDH1 activity versus control", "setting": "[6]; 96 hrs", "result": 92.3, "unit": "%"}, {"measurement": "ALDH1 activity over the time course", "setting": "[6]; 24, 48, 72, 96 hrs", "result": "steady decrease"}, {"measurement": "mice highly responsive (virtually no phosphorylated HER2/neu detected)", "setting": "[7]; of 10 mice, 10 day treatment", "result": 3, "unit": "mice"}, {"measurement": "mice moderately responsive", "setting": "[7]; of 10 mice, 10 day treatment", "result": 5, "unit": "mice"}, {"measurement": "nonresponsive mice", "setting": "[7]; of 10 mice, 10 day treatment", "result": 2, "unit": "mice"}, {"measurement": "mice moderately responsive (noticeable reduction in phosphorylated HER2/neu)", "setting": "[7]; of 14 mice, 5 day treatment", "result": 4, "unit": "mice"}, {"measurement": "mice whose tumors showed drastic reduction in phosphorylated HER2/neu", "setting": "[7]; of 14 mice, 5 day treatment", "result": 5, "unit": "mice"}, {"measurement": "nonresponsive mice", "setting": "[7]; of 14 mice, 5 day treatment", "result": 5, "unit": "mice"}, {"measurement": "number of secondary nodules (metastases) versus control", "setting": "[1]", "result": "decreased the number of secondary nodules"}, {"measurement": "size (weight) of tumors versus control", "setting": "[1]", "result": "decreased the size of tumors"}, {"measurement": "number of secondary nodules (metastases) versus control", "setting": "[2]", "result": "decreased the number of secondary nodules"}, {"measurement": "size (weight) of tumors versus control", "setting": "[2]", "result": "decreased the size of tumors"}, {"measurement": "percentage of animals with lung metastases", "setting": "[8]", "result": "significantly reduced"}, {"measurement": "lowest dosage with inhibitory effect on phosphorylation of HER+/neu", "setting": "[9]", "result": 5, "unit": "mg/kg/day"}, {"measurement": "phosphorylated Neu protein in primary tumors", "setting": "[10]", "result": "significant decrease"}, {"measurement": "phosphorylation of neu in secondary tumors", "setting": "[10]; some phosphorylated neu still detected", "result": "decrease"}]}
